Source: paper PMC5124963, “Negative feedback regulation of ABA biosynthesis in peanut (Arachis hypogaea): a transcription factor complex inhibits AhNCED1 expression during water stress”

Target: T1, GST-AhAREB1 (Arachis hypogaea, UniProt G4X5C6 1-445)
T1 sequence: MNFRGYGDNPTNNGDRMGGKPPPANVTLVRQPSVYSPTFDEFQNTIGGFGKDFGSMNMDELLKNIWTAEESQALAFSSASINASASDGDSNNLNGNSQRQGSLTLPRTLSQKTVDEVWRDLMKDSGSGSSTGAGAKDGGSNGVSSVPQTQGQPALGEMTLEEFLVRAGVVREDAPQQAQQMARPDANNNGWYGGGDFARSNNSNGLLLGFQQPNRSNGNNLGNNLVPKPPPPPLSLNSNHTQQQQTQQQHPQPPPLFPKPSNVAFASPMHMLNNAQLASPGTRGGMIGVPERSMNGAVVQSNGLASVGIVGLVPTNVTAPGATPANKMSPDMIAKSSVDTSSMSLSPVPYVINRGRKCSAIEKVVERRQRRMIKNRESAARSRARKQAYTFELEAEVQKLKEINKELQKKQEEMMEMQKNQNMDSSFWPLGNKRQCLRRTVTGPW
Test: EMSA; LightShift Chemiluminescent EMSA kit (Pierce); buffer, salt, pH and temperature not stated
Conditions: protein: recombinant; tags: N-terminal GST (pGEX-4T-1); chain copies: 2; label: biotin

B1: WT probe, AhNCED1 promoter ABRE/NACRE (-1367) (dsDNA)
DNA 1: CTCATCAATTATCACGTGTGATTGCTCTCA
DNA 2: TGAGAGCAATCACACGTGATAATTGATGAG
B1: binds.
